Target: human Met receptor (human) (UniProt P08581)
Experiment: cell-based or functional assay

Chain of UniProt P08581 (P08581 25-1390): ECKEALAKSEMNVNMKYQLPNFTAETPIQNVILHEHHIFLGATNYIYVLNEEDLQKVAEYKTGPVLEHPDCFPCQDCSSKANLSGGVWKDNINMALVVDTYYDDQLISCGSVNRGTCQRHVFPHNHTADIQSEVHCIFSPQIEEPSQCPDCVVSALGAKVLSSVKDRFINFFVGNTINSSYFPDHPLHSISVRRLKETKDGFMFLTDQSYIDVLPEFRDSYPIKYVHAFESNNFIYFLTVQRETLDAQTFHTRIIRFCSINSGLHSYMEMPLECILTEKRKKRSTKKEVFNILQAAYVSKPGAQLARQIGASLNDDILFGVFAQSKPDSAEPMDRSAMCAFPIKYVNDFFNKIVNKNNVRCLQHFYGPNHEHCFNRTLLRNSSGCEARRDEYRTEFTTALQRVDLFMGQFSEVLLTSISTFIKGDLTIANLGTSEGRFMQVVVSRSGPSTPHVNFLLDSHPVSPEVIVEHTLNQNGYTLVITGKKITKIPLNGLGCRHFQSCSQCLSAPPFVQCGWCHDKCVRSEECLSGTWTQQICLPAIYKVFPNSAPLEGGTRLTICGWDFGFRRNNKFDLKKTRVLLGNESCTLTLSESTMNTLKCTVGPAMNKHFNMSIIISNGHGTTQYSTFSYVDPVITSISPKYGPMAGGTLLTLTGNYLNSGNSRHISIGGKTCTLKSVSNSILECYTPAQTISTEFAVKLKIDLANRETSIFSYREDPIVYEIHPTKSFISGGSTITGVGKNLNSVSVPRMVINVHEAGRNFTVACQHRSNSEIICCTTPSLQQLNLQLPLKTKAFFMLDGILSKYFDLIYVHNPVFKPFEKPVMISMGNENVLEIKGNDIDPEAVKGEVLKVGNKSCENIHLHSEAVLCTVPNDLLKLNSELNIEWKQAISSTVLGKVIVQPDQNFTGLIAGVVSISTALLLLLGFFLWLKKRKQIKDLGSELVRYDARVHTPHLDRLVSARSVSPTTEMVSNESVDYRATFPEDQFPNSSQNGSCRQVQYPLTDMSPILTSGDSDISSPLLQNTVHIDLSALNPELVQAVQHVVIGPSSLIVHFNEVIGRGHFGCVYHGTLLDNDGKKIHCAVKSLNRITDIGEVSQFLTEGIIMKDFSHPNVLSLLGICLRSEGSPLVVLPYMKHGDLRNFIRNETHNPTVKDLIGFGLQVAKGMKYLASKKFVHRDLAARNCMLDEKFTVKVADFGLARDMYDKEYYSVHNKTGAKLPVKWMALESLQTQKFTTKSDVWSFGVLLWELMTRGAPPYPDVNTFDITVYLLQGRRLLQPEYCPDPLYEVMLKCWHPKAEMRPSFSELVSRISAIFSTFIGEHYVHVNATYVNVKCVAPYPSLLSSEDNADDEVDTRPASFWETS

growth of subcutaneous SK-LMS-1 (high Met) xenografts in hHGF Tg scid mice against control scid mice: 3 fold
Substance: human hepatocyte growth factor/scatter factor (hHGF/SF) (from UniProt P14210 32-728) (ligand)

Source: patent publication US7968762
